Source: patent US20110288036A1, “Methods for Treating or Preventing Vascular Graft Failure” (priority 2010, published 2011)
Where no end group is shown, it is not given here.

Molecular target: MK2 (mitogen-activated protein kinase-activated protein kinase 2), P49137
Test: cell-based or functional assay

Sequence of MK2 (mitogen-activated protein kinase-activated protein kinase 2), P49137 (P49137 46-400): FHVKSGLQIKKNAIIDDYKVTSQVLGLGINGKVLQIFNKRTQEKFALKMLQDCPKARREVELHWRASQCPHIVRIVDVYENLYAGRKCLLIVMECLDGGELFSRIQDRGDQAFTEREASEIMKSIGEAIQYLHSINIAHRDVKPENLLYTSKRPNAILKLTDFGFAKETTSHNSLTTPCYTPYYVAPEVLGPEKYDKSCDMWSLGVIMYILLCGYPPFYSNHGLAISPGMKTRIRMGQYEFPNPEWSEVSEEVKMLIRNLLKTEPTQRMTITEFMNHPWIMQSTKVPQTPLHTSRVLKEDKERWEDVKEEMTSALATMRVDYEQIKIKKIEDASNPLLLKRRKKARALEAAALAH

YARAAARQARAKALARQLGVAA (not fully specified (C-terminus)) [MMI-0100 (…; SEQ ID NO: 1)]
Percent Activity (radiometric kinase assay, 100 µM peptide) (percent activity): < 5
